Data taken from the DeepSol protein solubility set.

Assay: soluble on expression in E. coli; label from the status in PepcDB or PDB records

Sequence	soluble on expression in E. coli
MGILKSLFTLGKSFVAQAEEAIDEAQGVRMLEQHIRDAKAELDKAGKSRVDLLARVKLSHDKLNDLRERKASLETRALAAMSKNVDAALLNEVAEEIARLENAILAEEQVLTNLEASRDAVEKAVTATGQRIAQFEQQLEVVKATEAMQRAQQAVTTSTVGAASNVSTAAESLKRLQTRQAERQARLDAAAQLEKVADGRDLDEKLAQAGIGATNKSNAQGVLARLQRQQGELEHHHHHH	not soluble
MSLKNFVVKDIGIPKYIENMVGKGDFYLLNKRKLNSHKGQNGKVLIIGGSKEYHGAPVFSGLAASKFADIVTVASVSNVIGTVRNYPELMPYELNGEYIGQKNTDELLKLSKNYDCTVLGSGLSLNSSTKEFVNSYLNETNGKVVIDADAIKLIDYGNFEFKNNFIFTPHKKEFEYMKDYVKKYAKNQGFNSTVVLKGSIDIVFDPDNIKMNITGNQGMTAGGTGDILCGIIGAICACNDAFPSACCGTYINGYCGDLLEKEYGYYYNSTDIIKILPKALKELLYEGHHHHHH	soluble
MSGRKFSFEVTKTSSAPAATLFRLVTDGGNWATWAKPIVAQSSWARRGDPAPGGIGAIRKLGMWPVFVQEETVEYEQDRRHVYKLVGARTPVQDYFGEVVLTPNASGGTDLRWSGSFTEKVRGTGPVMRAALGGAVRFFAGQLVKAAEREAVRR	soluble
MEAVDLAFANYAERFARSCKGDGWRRLVERAIRLYLTPVLGKKALPAINRTDVVSVFDNMPADQVANRRNVFAVLRRLFRWAVSRGDLDRSPMEGMLEHHHHHH	not soluble
MSLGQVFYYQPEQVHLSFGESPLEIVVTWSTMTATNESIVEYGIGGLILSATGTETKFVDGGPAKRTQYIHRVVLRDLQPSSRYEYHCGSRWGWSAEFYFHTTPAGTDWSPSLAIFGDMGNENAQSMARLQEDTQRHMYDAILHVGDFAYDMNTDDALVGDQFMNQIQSIAAYTPYMVCAGNHEEKYNFSNYRARFSMPGGTENIMYSFNLGPVHFIGFSTEVYYFMNYGLKPLVKQYEWLRRDLEEANRPENRKLRPWIVTYGHRPMYCSNDNDNDCTHSETLVRVGLPFMHWFGLEDLFYEHGVDVEIWAHEHSYERLFPIYDYKVYNGSYEEPYRNPRAPVHLVTGSAGCKEGREPFINKIPTWSAIHSRDYGYTRMKAINGSHLYFEQISVDKEGAVIDSFTIIKDEGHHHHHH	soluble
MIDPVCGMKVDKNAKFKSTYNGKEYYFCSEHCKVEFDRNPIKYTR	not soluble
MGSDKIHHHHHHMSQINASASGTYAFDDQFKVNRLGYGTMQLTGEGTWGPYDDPNNAVSVIKKAVDLGINFFDTADSYGPWFADRYLAEGLKSASNRDEIFISDKVGQTRQGPGVWTPHGEPNYLRQQVEVSLMTLGIDHEDLLFLHRIDSHFSVAEQVGELKKLQDEGKIKHIGLSQVTVGQIKEAQKYAKIDAVENLYNVSDHRDDDVLDYAESQHMAFVPWFPLNTEKLTGANSPLAKIANKYKASPAQIALAWLLKRSGNVLPIPGTSSVAHLEDNVAAASIKLSDDDFKAITNLGVSNR	not soluble
SEAAETEAEAAALEVLAEVAGILEPVGLQEEAELPAKILVEFVVDSQKKDKLLCSQLQVADFLQNILAQEDTAKGLDPLASEDTSRQKAIAAKEQWKELKATYREHVEAIKIGLTKALTQMEEAQRKRTQLREAFEQLQAKKQMAMEKRRAVQNQWQLQQEKHLQHLAEVSAEVRERKTGTQQELDGVFQKLGNLKQQAEQERDKLQRYQTFLQLLYTLQGKLLFPEAEAEAENLPDDKPQQPTRPQEQSTGDTMGRDPGVSFKAVGLQPAGDVNLP	soluble
MALILTFLGKSGVARTKIAIAAAKLLASQGKRVLLAGLAEPVLPLLLEQTLTPDPQQIAPNLEVVQFQSSVLLERNWEEVKKLEAQYLRTPIIKEVYGQELVVLPGMDSALALNAIREYDASGKYDAIVYDGTGDAFTLRMLGLPESLSWYVRRFRQLFVNSDLGKTIAESPLIQPLISSFFNVNWTADNFAQPTNQVNNFLDKGKEALADPKRVAAFLVTTADPLEVVSVRYLWGSAQQIGLTIGGVIQVSSQTEGDLSAEFTPLEHHHHHH	not soluble
GSSGSSGMGNSKSGALSKEILEELQLNTKFSEEELCSWYQSFLKDCPTGRITQQQFQSIYAKFFPDTDPKAYAQHVFRSFDSNLDGTLDFKEYVIALHMTTAGKTNQKLEWAFSLYDVDGNGTISKNEVLEIVMAIFKMITPEDVKLLPDDENTPEKRAEKIWKYFGKNDDDKLTEKEFIEGTLANKEILRLIQFEPQKVKEKMKNA	soluble
MGSDKIHHHHHHMINTDHPIRIAIAGLGFGESVHIPASLSNKNIELVGLWHPRPERLKEACNKHNLRAYETWEDLVNDSKVDGIIIATPPAPRYELALEAIKGGKHLLLEKPTCLNAYEVMELQRNALKRNLKIAVDYEYRAVPLFMQAKRIITEKKLDEPYFVKLDWLMSSRANPDRPWNWYSDENSGGGVLGALGTHAFDMIHWLIGPTHSLSAINSTSIEERECPQSKTIKKVTSEDVSISQLQIKSINNNLIPAQVNLSAVTKQSRGFSLEIYGSNGTLVLSSENQNDYVHGFGLWYSNKGDVLKNIQPDSDLSFSKIWTDGRIAPVARIQNWWAQSIADGTPVIPGLVEGLASQIVCDKVKESNSIGMKIEIN	not soluble
MSLGELNVATVTRRPEILLVDSQEVILQRLQQLLSPLPYTLHFARDATQALQLLASREVDLVISAAHLPQMDGPTLLARIHQQYPSTTRILLTGDPDLKLIAKAINEGEIYRYLSKPWDDQELLLALRQALEHQHSERERLRLQDLAQQQNAELKALNTLLEKRVAARTSELQQTADMLDLAYEELKPSYATGAELFSLLVNQRLPADKQTNRRIIELVRAYCKVQGIDPGAQRDLAMAAALHNIGKLSWSDSMMTSPADLLHHHQRERYRAYPAQSESLLMTLEPVQDAARLIRHHQEHWDGSGFPDHLKGDAIPLGSRLLKLAVDFIELQCGLILERHMNSDEALVFIRKYAGRLYDPDLVEGFIQVCAVYLSDVTLGDPSVKVLSTRELAAGMILARNLNADNGMLLLNAGKVLNLPLVDKLIAFETMEGARYSVFVKLPQEQQARAEGHHHHHH	not soluble
SLKIYRSTLLHTPASPFAVPDALQTFSDGALAVGDTGTIAHLGTFTEVLAEVRAACPDAEVHDLRGGVLLPGFIDTHVHYPQVRVLGGLGMALLEWLDRNTLPEEARLADAAYARTIAGEFLHGLASHGTTTALVFGSHFAGAMDEFFAEAAARGLRVVAGQVVSDRLLRPELHTTPERAYAEGKALIERWHGQGRSLYAVTPRFSLSASEGILDACAALLTEFPDVRFTSHINENNQEIEVVRGLFPGARDYLDTYERAGLVTPRSVFAHNVHPNERELGVLAAQRCSVAHCPCSNSALGSGLFPLRRHLAAGVHVALGTDVGGGTGFSLLKEGLQAYFMQQLLGEEGAALSPAHLLYLATLAGAQALGLDGQVGDFTPGKQFDAVWLRPRAGSTLATVLAHAESEERTLAALFALGTGDDVERVWVGGGVVFAREAEA	soluble
MGSDKIHHHHHHMEEYIRRILTLGRKRLEKFALKGGKPLPERPLIVKLMEEIRGFLGSGENRVILLYGLRGVGKTTMLAQLYLKLIGEVSGERILYASVDEIKMLGYRLKDVFESYEHIIGERLEELREPTIFLLDEVHYDEEWDLALKVAYDRARNLMIVATGSSAIELKLSTDLARRAKRFHITPLTFTEYLLLKGIRVNEEVKKVLKRLLLAGEVEGIEEEIRKTFLTFDPIEVERYLLYGSLPLALSSREPLEETYSIVERIIRWDLAKMGFSQEVLEKAFLLMLMLASGEALNYDRLTSRLGISRPVLAKLLSAFENLEVIFPVRAYGSLGKAIRKTPKYKFLAPVIRTSILNHFGLLEVNEKILGNLLEDVVALYLYIIARELSGSVTYDAEKGGADFILTTPIGRIVLEVGWGKKGKEQVKRTMKKIGAERGIIIHGGDFREKNGVIWLPKEWFLLML	not soluble
MKIALINENSQASKNHIIYDSLKEATDKKGYQLFNYGMRGEEGESQLTYVQNGLMAAILLNTKAVDFVVTGCGTGVGAMLALNSFPGVVCGLAVDPTDAYLYSQINGGNALSIPYAKGFGWGAELTLKLMFERLFAEEMGGGYPRERVIPEQRNARILNEVKQITHNDLMTILKIIDQDFLKDTISGKYFQEYFFENCQDDEVAAYLKEVLA	not soluble
MGHERDWSLVQVALTDITARKKAEAYLEYLGKHDVLTKLHNRAFYSDELNRLERSALRPVSAIVIDLNGLKEANDKLGHDAGDALLRRVGEVLNGVVTAPNHAARIGGDEFAILLPGADKQVAAAMVDTVYELLKINNQFYSSAPLSLSLGVATTEAGETMESLVRRADMNMYEQKNALEHHHHHH	soluble
MNKNVMVKGLTALTILTILTSLGFAENISNQPHSIAKAEKNVKEITDATKEPYNSVVAFVGGTGVVVGKNTIVTNKHIAKSNDIFKNRVSAHHSSKGKGGGNYDVKDIVEYPGKEDLAIVHVHETSTEGLNFNKNVSYTKFADGAKVKDRISVIGYPKGAQTKYKMFESTGTINHISGTFMEFDAYAQPGNSGSPVLNSKHELIGILYAGSGKDESEKNFGVYFTPQLKEFIQNNIEK	not soluble
MGSDKIHHHHHHMNYRDELILQWVNQQGKASVIELAQHCDISVETIRRDLNKLANKGLLHRTHGGAVSNKTKDLGSFFQTRKHINATAKRHIAQKALDLLYENAVIGLDASSTSWYFAYLMPDIPCTVVTNSMFNINALVNKSNVKTIVTGGVYSAKYEAFYGPLSEYLLQRLHINFSVFSCSGIDKNGNIWESNELNASLKRKMMEASERAYLLIDSSKFEKTSLIQLADLSKINTIFSDRSLPDNLQKYCEQHDIMTVL	not soluble
MLDDTGERIIPKNMKPMNGMLLEHLARYYFSTPYASGRVLDIACGTGYGSVMVAKTRKTEVDQVLGVDFDADVIHYAKQNYYHPKVSFLVGDAMDPYLRNQIGTFDTILSFETIEHVKDDRLFIERMRQLLKKDGTLVLSTPFGQGRGKPSDEPFHYHQLTEEEFRSLFDSFSEKEVFYQRGVTIEPKRTNVHYAFGVAVCKKLEHHHHHH	soluble
MGKFSKIKKVQEEESAHQKMEWEAAGAKDSSSDDSSDESDNDDQPKQATEETRKRAELWTNRERVLVLCSRGADVRTRYLMKDIKDLLPHAKGDSKLDQQKSLNVLNEIAEMKNCTKVMYFESRKRKDTYLWMSNVEKGPSIKFLVHNVHTMKELKMSGNCLRASRPVLSFDDAFDKKPQLKLIKAVLMQTLGTPHHHPRSQPFVDHVFNFSVGEGDKIWFRNFQIVDESLQLQEVGPRFVLEMVRLFAGSFEGAVLYDNPNYVSPNVIRREHRKGQHSYIEKQLAVKASNIKQAKVTEILAEKTVDLVGKEFDTQNNAAADSEAAAQITAQIEKRRVRKKKSQASKYTGSD	soluble
GPGSMSCEVTMVGRDRDYLHDVQYGSRTFRLADRRIRAPSGLTVRAVDAEPIKDDVGVDAVLSCVPATCLENDGAHTPPMVRCAQNHADAPMLLFTRGFTREGLTPLEQLGRVSQDLPSKLVVVSGPLFAREWAVTSAAACDGGDANRNSGVTLSFALGGKADVELSRSLQSLTERLWRRESVTWLDGPLAAEILSLVNGCVPLCSMGAGLVSSEYPGSVSATMSYLQHATSATEQLVNGVLGLPLGSPLPSCAVATIAMACTNHAAREFVFGRRLDYHFRHRDAIRAVFPAGSHEALDSTVSGLHMLLRRHAMSSPFYEVLMDTFLTLMRASVAGRELVRLGHYEYRHKLRDEDTVLLRHTEVVDEAMLSGDHQRFDDARRALQMAFGDSSCGAPTMPPL	not soluble
